Assay results reported in patent publication US20250051449A1 (SURFACE ONCOLOGY, published 2025).
Where a chain is given by its changes, count along the chain named.

T1: human CD112R expressed on Jurkat cells (human, UniProt Q6DKI7 1-326)
T1 construct: whole, on cells; Used for both Jurkat-CD112R OE cells and wild type Jurkat cells; which cells is said under assay; also called PVRIG; Jurkat-CD112R OE
T1 sequence (looked up): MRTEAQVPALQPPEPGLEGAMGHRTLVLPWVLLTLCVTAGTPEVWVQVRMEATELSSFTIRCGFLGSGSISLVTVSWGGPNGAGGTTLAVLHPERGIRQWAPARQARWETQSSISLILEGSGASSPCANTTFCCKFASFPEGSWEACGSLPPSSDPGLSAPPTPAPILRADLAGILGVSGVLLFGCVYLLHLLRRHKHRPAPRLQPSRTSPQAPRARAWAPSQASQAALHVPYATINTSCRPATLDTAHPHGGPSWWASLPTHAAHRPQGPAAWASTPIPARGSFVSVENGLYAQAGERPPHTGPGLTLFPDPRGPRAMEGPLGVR

T2: CD112R-hIgG4 fusion protein (human, UniProt Q6DKI7 41-171, limits assumed)
T2 construct: also called human CD112R-hIgG4; not shown: human IgG4 portion (hIgG4)
T2 sequence (looked up): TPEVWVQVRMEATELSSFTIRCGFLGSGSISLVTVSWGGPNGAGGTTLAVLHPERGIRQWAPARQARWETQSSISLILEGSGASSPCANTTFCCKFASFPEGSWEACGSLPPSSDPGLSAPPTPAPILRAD

B1: Antibody 44 (antibody, V domains shown)
VH: QVQLVQSGAEVKKPGSSVKVSCKASGGTFDNYYISWVRQAPGQGLEWMGGIFPIFGTANYAQKFQGRVTITADESTSTAYMELSSLRSEDTAVYYCAREVGHYSGSPYYMDVWGKGTTVTVSS
VL: DIQMTQSPSTLSASVGDRVTITCRASQSINSWLAWYQQKPGKAPKLLISDASSLESGVPSRFSGSGSGTEFTLTISSLQPDDFATYYCQQVGPYLTFGGGTKVEIK
notes: Purified as IgG; compared with an IgG1 isotype control and detected with anti-human IgG Fc; also called antibody clone number 44; clone 44
B2: Antibody 15 (antibody, V domains shown)
VH: EVQLVESGGGLVQPGRSLRLSCTASGFTFGDVAMSWFRQAPGKGLEWVGYIGSKAYGGETEYTASVKGRFTISRDGSKSIAYLQMNSLKTEDTAVYYCARAGHSYGSIASNWFDPWGQGTLVTVSS
VL: DIQMTQSPSSLSASVGDRVTITCRASQSISSYLNWYQQKPGKAPKLLIYGASSLQSGVPSRFSGSGSGTDFTLTISSLQPEDFATYYCQQGFYTPWTFGGGTKVEIK
notes: Purified as IgG; compared with an IgG1 isotype control and detected with anti-human IgG Fc; also called antibody clone number 15; clone 15
B3: Antibody 10 (antibody, V domains shown)
VH: EVQLVESGGGLVQPGRSLRLSCAASGFTFDDYAVHWVRQAPGKGLEWVSGISWSSGLIGYADSVKGRFTISRDNAKNSLYLQMNSLRAEDTAVYYCAKGPPTYQDYFDLWGRGTLVTVSS
VL: EIVLTQSPATLSLSPGERATLSCRASQSVSRYLAWYQQKPGQAPRLLIYDASNRATGIPARFSGSGSGTDFTLTISSLEPEDFAVYYCQQVSFFPPITFGGGTKVEIK
notes: Purified as IgG; compared with an IgG1 isotype control and detected with anti-human IgG Fc; also called antibody clone number 10; clone 10
B4: Antibody 2 (antibody, V domains shown)
VH: EVQLVESGGGLVKPGGSLRLSCAASGFTFSEYTMNWVRQAPGKGLEWVSAIVGSGDSTYYADSVKGRFTISRDNSKNTLYLQMNSLRAEDTAVYYCAKDYSSGDWIDYGMDVWGQGTTVTVSS
VL: DIQMTQSPSSLSASVGDRVTITCQASQDISNYLNWYQQKPGKAPKLLIYDASNLATGVPSRFSGSGSGTDFTFTISSLQPEDIATYYCQQFDLLPPTFGGGTKVEIK
notes: Purified as IgG; compared with an IgG1 isotype control and detected with anti-human IgG Fc; also called antibody clone number 2; clone 2
B5: Antibody 5 (antibody, V domains shown)
VH: B4 VH with V5L, K13Q, E31D, T33A, N35I, V52S, S54G, D56E
VL: B4 VL
notes: Purified as IgG; compared with an IgG1 isotype control and detected with anti-human IgG Fc; also called antibody clone number 5; clone 5
B6: Antibody 38 (antibody, V domains shown)
VH: EVQLLESGGGLVQPGGSLRLSCAASGFTFSGHLMSWVRQAPGKGLEWVSAISGSAGETYYADSVKGRFTISRDNSKNTLYLQMNSLRAEDTAVYYCARDAYYDDWSGWADWYFDLWGRGTLVTVSS
VL: EIVLTQSPATLSLSPGERATLSCRASQSVSRYLAWYQQKPGQAPRLLIYDASNRATGIPARFSGSGSGTDFTLTISSLEPEDFAVYYCQQVSLLPPTFGGGTKVEIK
notes: Purified as IgG; compared with an IgG1 isotype control and detected with anti-human IgG Fc; also called antibody clone number 38; clone 38

Each binder was assayed against T1, human CD112R expressed on Jurkat cells (assay: flow cytometry, Jurkat cells over-expressing human CD112R, 0.63 ug/mL antibody).
Procedure: (§1) The ability of anti-CD112R antibodies to bind to CD112R expressed on cells was evaluated. 1×10⁵ Jurkat cells (acute T cell leukemia cell line, ATCC #TIB-152) that were either wild type or engineered to over-express human CD112R (Jurkat-CD112R OE) were added to each well of a 96-well V bottom plate and stained with either anti-CD112R antibodies or an IgG1 isotype control (0.63 μg/mL) for 1 hour at 4° C. Cells were washed twice with PBS+2% FCS and resuspended with Alexa Fluor® 647 anti-human IgG Fc antibody (Biolegend, Cat #409320) diluted 1:100 in PBS+2% FCS and incubated at 4° C. for 30 minutes. Cells were subsequently washed twice and resuspended in PBS+2% FCS. Cellular data was acquired using a LSRFortessa X-20 (BD Biosciences) and analyzed with FlowJo software (Tree Star).
Results are depicted in FIG. 1. Quantitation of antibody binding to Jurkat-CD112R OE cells was assessed by the geometric mean fluorescent intensity (gMFI) of the Alexa Fluor® 647 signal.

gMFI (fold increase over isotype)	Binder
46.9 fold increase over isotype	B1
53.2 fold increase over isotype	B2
55.7 fold increase over isotype	B3
63.9 fold increase over isotype	B4
63.3 fold increase over isotype	B5
51.7 fold increase over isotype	B6

What follows are binders tested against T1, human CD112R expressed on Jurkat cells (assay: flow cytometry competition on Jurkat-CD112R OE cells; competitor biotinylated his-tagged human CD112).
Procedure: The ability of anti-CD112R antibodies to block CD112 binding to CD112R expressing cells was evaluated. 1×10⁵ Jurkat cells (acute T cell leukemia cell line, ATCC #TIB-152) that were engineered to over-express human CD112R (Jurkat-CD112R OE) were added to each well of a 96-well V bottom plate and stained with serial dilutions of either anti-CD112R antibodies or an IgG1 isotype control (highest concentration, 10 μg/mL) for 1 hour at 4° C. Cells were washed twice with PBS+2% FCS and resuspended with biotinylated his-tagged human CD112 (3 μg/mL) (BPS Bioscience, #71234) and PE Streptavidin (5 μg/mL) (Biolegend, #405204) in PBS+2% FCS and incubated at 2 hours at 4° C. Cells were subsequently washed twice and resuspended in PBS+2% FCS. Cellular data was acquired using a LSRFortessa X-20 (BD Biosciences) and analyzed with FlowJo software (Tree Star).
Results are depicted in FIG. 2A and Table 2. […] Percent inhibition was calculated as [100−((test sample MFI/Max MFI)*100%)]

CD112 blocking max inhibition (%)	IC50 [ng/mL]	Binder
97.7	0.81	B1
97.9	0.51	B2
96.8	0.69	B3
94.1	0.83	B4
97	0.17	B5
95.5	0.19	B6

Each binder was assayed against T1, human CD112R expressed on Jurkat cells (assay: flow cytometry, wild type Jurkat cells, 0.63 ug/mL antibody).
Procedure: as §1

gMFI (fold increase over isotype)	Binder
4.8 fold increase over isotype	B1
4 fold increase over isotype	B2
4.6 fold increase over isotype	B3
4.7 fold increase over isotype	B4
3.8 fold increase over isotype	B5
3.8 fold increase over isotype	B6

The binders below were run against T2, CD112R-hIgG4 fusion protein (assay: blocking ELISA: coated CD112R-hIgG4, antibody, then biotinylated CD112 Fc).
Procedure: The ability of anti-CD112R antibodies to block human CD112R was also evaluated by ELISA. Briefly, 96 well Nunc Maxisorp plates were coated with 1 μg/mL of a CD112R-hIgG4 fusion protein in PBS overnight at 4° C. […] After blocking, plates were washed 6× with PBST. Next, 100 μl of anti-CD112R antibodies in PBS+1% BSA was added at a final starting concentration of 10 μg/mL, with 4-fold serial dilutions. Plates were incubated at room temperature for 1.5 hours. Next plates were washed 6× with PBST and then incubated with 1 μg/ml CD112 Fc protein (R&D Systems, Cat #9317-N2-050) that was biotinylated with a sulfo-NHS biotinylation kit (Thermo Fisher, Cat #21925) in 100 μl of PBS+1% BSA for 1 hour at room temperature. Plates were then washed 6× with PBST and subsequently incubated with streptavidin-HRP (Biolegend, Cat #405210) diluted in PBS+1% BSA according to the manufacturer recommendation for 1 hour at room temperature. Following this incubation, plates were then washed 6× with PBST and developed with TMB substrate (Life Technologies, Cat #002023). The reaction was stopped with an equal volume of stop solution (Life Technologies, Cat #SS04). Absorbance at 450 nm (O.D. 450) was measured on a SpectraMax plate reader.
Results are depicted in FIG. 2B and Table 2. […] Percent inhibition was calculated as [100−((test sample O.D. 450/Max 0.D. 450)*100%)] Max O.D. 450 was defined as absorbance at 450 nm in the absence of antibody.

CD112 blocking max inhibition ELISA (%)	Binder
96.8	B1
97	B2
96.3	B3
97	B4
97.4	B5
97.2	B6
